Data on one substance can be found in patent US20240035022A1.

The test concerns the target hCD52 peptide mimetope (affinity measurement of Table 1) (human). Nature of the test: affinity on a hCD52 peptide mimetope, method not stated (footnote of Table 1).

Consider Campath-1H (antibody), for which the Kd – broadly, the equilibrium constant for the complex coming apart – is 68 nM.
